# Measurements reported in PMC3268813.
# Tests used:
# [1] = target: synthetic phospho-S463 CRN2 coiled coil peptide (human) (UniProt Q9ULV4); test: small-angle X-ray scattering
# [2] = target: synthetic phospho-S463 CRN2 coiled coil peptide (human) (UniProt Q9ULV4); test: SEC-MALS
substance,measurement,setting,value
synthetic phospho-S463 CRN2 coiled coil peptide (from UniProt Q9ULV4 435-474),stoichiometry N,[1],3
same,stoichiometry N,[2],3
